Test results as given in patent US11618906B2, “Hydroxylation techniques” (HYPHA DISCOVERY LTD., priority 2018, dated 2023).

B1: aluC09M19: cytochrome P450 aluC09 mutant T291A; amino acid sequence SEQ ID NO: 24 (protein, listed as Amycolatopsis lurida)
chain: MTDVEETTATLPLARKCPFSPPPEYERLRRESPVSRVGLPSGQTAWALTRLEDIREMLSSPHFSSDRQSPSFPLMVARQIRREDKPFRPSLIAMDPPEHSRARRDVVGEFTVKRMKALQPRIQQIVDEHLDALLAGPKPADLVQALSLPVPSLVICELLGVPYSDHEFFQSCSSRMLSREVTAEERMTAFEQLENYLDELVTKKEANATEDDLLGRQILKQRETGEADHGELVGLAFLLLIAGHETTANMISLGTVTLLENPDQLAKIKADPGKTLAAIEELLRVFTIAEAATSRFATADVEIGGTLIRAGEGVVGLSNAGNHDPDGFENPDTFDIERGARHHVAFGFGVHQCLGQNLARLELQIVFDTLFRRVPGLRIAVPVDELPFKHDSTIYGLHALPVTW
B2: aluC09M20: cytochrome P450 aluC09 mutant T291V; amino acid sequence SEQ ID NO: 28 (protein, listed as Amycolatopsis lurida)
chain: MTDVEETTATLPLARKCPFSPPPEYERLRRESPVSRVGLPSGQTAWALTRLEDIREMLSSPHFSSDRQSPSFPLMVARQIRREDKPFRPSLIAMDPPEHSRARRDVVGEFTVKRMKALQPRIQQIVDEHLDALLAGPKPADLVQALSLPVPSLVICELLGVPYSDHEFFQSCSSRMLSREVTAEERMTAFEQLENYLDELVTKKEANATEDDLLGRQILKQRETGEADHGELVGLAFLLLIAGHETTANMISLGTVTLLENPDQLAKIKADPGKTLAAIEELLRVFTIAEVATSRFATADVEIGGTLIRAGEGVVGLSNAGNHDPDGFENPDTFDIERGARHHVAFGFGVHQCLGQNLARLELQIVFDTLFRRVPGLRIAVPVDELPFKHDSTIYGLHALPVTW

Tests used:
Type in all cases: biochemical
[1] = Metabolism of tivantinib by P450 aluC09 and mutants; details: percent of substrate being converted; 0.125 mg/ml, 27° C., 16-20 hours; [CYP] per enzyme as in Table 8
Procedure: (§1) Lyophilised material of mutants of CYP450aluC09, ferredoxinaluF03 and ferredoxin reductaseSCF15A was made as described in examples 3 and 4 and suspended in water (0.5 mL per vial) and biocatalysis was performed at 27° C. in the following conditions: 50 mM potassium phosphate pH 7.4, 5 mM MgCl2, 0.125 mg/ml substrate compound such as diclofenac (Sigma-Aldrich, UK), Aceclofenac (Tokyo Chemical Industry UK Ltd, UK), Indomethacin (Sigma-Aldrich, UK), Flufenamic acid (Sigma-Aldrich, UK), Napropamide (Sigma-Aldrich, UK), celecoxib (LC Laboratories, USA), valsartan (Tokyo Chemical Industry UK Ltd, UK), ruxolitinib (LC Laboratories, USA), 4-pyrrolidylacetophenone (Sigma-Aldrich, UK), tofacitinib (LC Laboratories, USA), bosentan (CarboSynth Ltd, UK), buparvaquone (MedChemtronica, Sweden), BIRB796 (Stratech Scientific Limited, UK), epothilone B (LC Laboratories, USA), ritonavir (Tokyo Chemical Industry UK Ltd, UK) or tivantinib (MedChemtronica, Sweden), P450AluC09 (concentration as in Table 8), 5 mM G6P, 1 mM NADP, 2 UN/ml G6PDH in a final volume of 100 μL. After 16-20 hours at 200 rpm (5 cm orbital shaker, Kuhner AG, Switzerland), reactions were extracted with an equal volume of acetonitrile, centrifuged to remove precipitated proteins and conversion assessed by UPLC-MS analysis.
(§2) However, of particular note when considering P450 concentration are the results for mutants M12, M20 and M34, as well as the deleterious impact on the range of substrate utility in mutants M39 and M40.

[2] = Metabolism of epothilone B by P450 aluC09 and mutants; details: percent of substrate being converted; 0.125 mg/ml, 27° C., 16-20 hours; [CYP] per enzyme as in Table 8
Procedure: as §1, §2

[3] = Metabolism of BIRB796 by P450 aluC09 and mutants; details: percent of substrate being converted; 0.125 mg/ml, 27° C., 16-20 hours; [CYP] per enzyme as in Table 8
Procedure: as §1, §2

[4] = O-demethylation of indomethacin catalysed by cytochrome P450 aluC09 and mutants; details: % by UV peak area at 275 nm; 0.125 mg/ml substrate, 27° C., 16-20 hours
Procedure: as §1
(§3) UPLC data was obtained as follows:
(§4) Column: Acquity UPLC BEH Shield RP18 1.7 μm 2.1 mm i.d. 50 mm length
(§5) Solvents: H2O, B: Acetonitrile, both with 0.1% Formic acid
(§6) Detector: Waters Acquity UPLC PDA (UV-Vis detection) and Waters Acquity UPLC QDA (MS)

[5] = Hydroxylation of flufenamic acid catalysed by cytochrome P450 aluC09 and mutants; details: for Flufenamic Acid (Substrate) 1.93 mins / Hydroxy-Flufenamic Acid (1) 1.69 mins / Hydroxy-Flufenamic Acid (2) 1.65 mins: % by UV peak area at 275 nm, 0.125 mg/ml substrate, 27° C., 16-20 hours; for Hydroxylated Ratio 1:2: flufenamic acid, ratio of UV peak areas at 275 nm
Procedure: as §1, §3, §4, §5, §6
Flufenamic acid elutes at 1.93 minutes, hydroxy-flufenamic acid 1 elutes at 1.68 minutes and hydroxy-flufenamic acid 2 elutes at 1.65 minutes.

[6] = Hydroxylation of aceclofenac catalysed by cytochrome P450 aluC09 and mutants; details: for Aceclofenac (Substrate) (1.80 mins) / Dihydroxy-Aceclofenac (1.42 mins) / Hydroxy-Aceclofenac (1) (1.64 min) / Hydroxy-Aceclofenac (2) (1.60 min): % by UV peak area at 275 nm, 0.125 mg/ml substrate, 27° C., 16-20 hours; for Hydroxylated Ratio 2:1: aceclofenac, ratio of UV peak areas at 275 nm
Procedure: as §1, §3, §4, §5, §6
Chromatograms are provided in FIGS. 5a-c; aceclofenac elutes at 1.80 minutes, hydroxy-aceclofenac acid 1 elutes at 1.64 minutes, hydroxy-aceclofenac acid 2 elutes at 1.60 minutes and dihydroxy-aceclofenac elutes at 1.42 minutes.

[7] = Hydroxylation of diclofenac catalysed by cytochrome P450 aluC09 and mutants (UPLC-PDA-MS); details: for 4′,5-dihydroxy-diclofenac 1.38 mins / 4′-hydroxy-diclofenac (1) 1.62 mins / 5-hydroxy-diclofenac (2) 1.58 mins / Diclofenac (Substrate) 1.81 mins: % by UV peak area at 275 nm, 0.125 mg/ml substrate, 27° C., 16-20 hours; for Hydroxylated Ratio hydroxy 1:hydroxy 2: diclofenac, ratio of UV peak areas at 275nm
Procedure: as §1, §3, §4, §5, §6
Illustrative results for the hydroxylation of diclofenac by CYP450aluC09 and selected T291x mutants are summarised below in Table 3 with representative chromatograms resented in FIG. 3a-c; retention times: diclofenac 1.85-1.88 minutes, 5-hydroxydiclofenac 1.60-1.63 minutes, 4′-hydroxydiclofenac 1.65-1.68 minutes, 4′,5-dihydroxydiclofenac 1.40-1.42 minutes. The chromatographic retention times and mass spectra coincided with those of authentic samples.

[8] = Metabolism of 4-pyrrolidylacetophenone by P450 aluC09 and mutants; details: percent of substrate being converted; 0.125 mg/ml, 27° C., 16-20 hours; [CYP] per enzyme as in Table 8
Procedure: as §1, §2

[9] = Metabolism of buparvaquone by P450 aluC09 and mutants; details: percent of substrate being converted; 0.125 mg/ml, 27° C., 16-20 hours; [CYP] per enzyme as in Table 8
Procedure: as §1, §2

[10] = Metabolism of ruxolitinib by P450 aluC09 and mutants; details: percent of substrate being converted; 0.125 mg/ml, 27° C., 16-20 hours; [CYP] per enzyme as in Table 8
Procedure: as §1, §2

[11] = Metabolism of celecoxib by P450 aluC09 and mutants; details: percent of substrate being converted; 0.125 mg/ml, 27° C., 16-20 hours; [CYP] per enzyme as in Table 8
Procedure: as §1, §2

[12] = Metabolism of ritonavir by P450 aluC09 and mutants; details: percent of substrate being converted; 0.125 mg/ml, 27° C., 16-20 hours; [CYP] per enzyme as in Table 8
Procedure: as §1, §2

[13] = Metabolism of tofacitinib by P450 aluC09 and mutants; details: percent of substrate being converted; 0.125 mg/ml, 27° C., 16-20 hours; [CYP] per enzyme as in Table 8
Procedure: as §1, §2

[14] = Hydroxylation / de-N-ethylation of napropamide catalysed by cytochrome P450 aluC09 and mutants; details: for Desethyl Napropamide (1.62 min) / Desethyl-hydroxy-Napropamide (1.41 min) / Hydroxy-Napropamide (1) (1.53 min) / Hydroxy-Napropamide (2), (1.52 min) / M-2Da (unidentified) (1.89 min) / Napropamide (substrate): % by UV peak area at 275 nm, 0.125 mg/ml substrate, 27° C., 16-20 hours; for Hydroxylated Ratio 2:1: napropamide, ratio of UV peak areas
Procedure: as §1, §3, §4, §5, §6
Napropamide elutes at 1.76 minutes, unidentified metabolite (−2 Da) elutes at 1.90 minutes, desethyl-napropamide elutes at 1.62 minutes, hydroxy-napropamide 1 elutes at 1.53 minutes and hydroxy-napropamide 2 elutes at 1.52 minutes and the desethyl-hydroxy-napropamide product elutes at 1.41 minutes.

[15] = Metabolism of valsartan by P450 aluC09 and mutants; details: percent of substrate being converted; 0.125 mg/ml, 27° C., 16-20 hours; [CYP] per enzyme as in Table 8
Procedure: as §1, §2

Molecule	% conversions (avg) Tivantinib [1] [%]	% conversions (avg) Epothilone B [2] [%]	% conversions (avg) BIRB796 [3] [%]	Indomethacin (1.74 mins) [4] [%]	O-demethyl-Indomethacin (1.52 mins) [4] [%]	Flufenamic Acid (Substrate) 1.93 mins [5] [%]	Hydroxy-Flufenamic Acid (1) 1.69 mins [5] [%]	Hydroxy-Flufenamic Acid (2) 1.65 mins [5] [%]	Hydroxylated Ratio 1:2 [5]	Aceclofenac (Substrate) (1.80 mins) [6] [%]	Dihydroxy-Aceclofenac (1.42 mins) [6] [%]	Hydroxy-Aceclofenac (1) (1.64 min) [6] [%]	Hydroxy-Aceclofenac (2) (1.60 min) [6] [%]	Hydroxylated Ratio 2:1 [6]	4′,5-dihydroxy-diclofenac 1.38 mins [7] [%]	4′-hydroxy-diclofenac (1) 1.62 mins [7] [%]	5-hydroxy-diclofenac (2) 1.58 mins [7] [%]	Diclofenac (Substrate) 1.81 mins [7] [%]	Hydroxylated Ratio hydroxy 1:hydroxy 2 [7]	% conversions (avg) Buparvaquone [9] [%]	other results
B1	26.1	4.5	16.6	93.5	6.5	90.4	5.8	3.8	1.5	6.7	48.3	6.5	38.5	5.9	2.4	50.0	14.2	34.8	3.5	17.1	% conversions (avg) 4-pyrrolidylacetophenone [8]: 0.7%; % conversions (avg) Ruxolitinib [10]: 50.8%; % conversions (avg) Celecoxib [11]: 4.5%; % conversions (avg) Ritonavir [12]: 65.4%; % conversions (avg) Tofacitinib [13]: 0%; Desethyl Napropamide (1.62 min) [14]: 50.1%; Desethyl-hydroxy-Napropamide (1.41 min) [14]: 4.9%; Hydroxy-Napropamide (1) (1.53 min) [14]: 2.3%; Hydroxy-Napropamide (2), (1.52 min) [14]: 3.9%; M-2Da (unidentified) (1.89 min) [14]: 6.1%; Napropamide (substrate) [14]: 34.3%; Hydroxylated Ratio 2:1 [14]: 1.7
B2	22.2	21.1	22.4	89.2	10.8	93.6	4.4	2.0	2.2	4.2	35.1	33.1	27.6	0.8	3.1	50.1	13.7	34.8	3.7	15.4	% conversions (avg) Ruxolitinib [10]: 70.7%; % conversions (avg) Celecoxib [11]: 2.2%; % conversions (avg) Ritonavir [12]: 100%; % conversions (avg) Valsartan [15]: 13.1%; % conversions (avg) Tofacitinib [13]: 4.5%; Desethyl Napropamide (1.62 min) [14]: 56.2%; Desethyl-hydroxy-Napropamide (1.41 min) [14]: 7.6%; Hydroxy-Napropamide (1) (1.53 min) [14]: 2.1%; Hydroxy-Napropamide (2), (1.52 min) [14]: 6.1%; M-2Da (unidentified) (1.89 min) [14]: 4.7%; Napropamide (substrate) [14]: 25.3%; Hydroxylated Ratio 2:1 [14]: 2.9
